Results: the supplement of paper PMC12042874
± gives the uncertainty stated by the source.

Experiment: amyloid nucleation score (Sup35N fusion, yeast selection) (log enrichment); library NNK3; higher = more nucleation; inactive = no reads after selection
Summary of the method: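 Three technical output replicates were used for random libraries. Psi-negative yeast expressing peptides of 20 random codons fused to Sup35N were induced with 100 μM copper sulfate for 24 hours and grown 7 days at 30°C on medium lacking adenine and uracil, and input and output plasmid inserts were Illumina-sequenced, excluding sequences with under 100 input reads. The nucleation score is the DiMSum log enrichment of output over input reads, centred on the mode score of non-aggregating sequences.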

Substance	amyloid nucleation score
QLSSYFRGLLFQCHSPQHGY	inactive
HSYTVWLVNMS	2.35 ± 0.077
CYRRSYASKLSDV	inactive
VSYEWPSQMFRPRVPLALAT	inactive
HLLYYVCRHQQFLWMDVQVE	inactive
CREVINDSFPNATWLHSGLV	inactive
INPYVL	inactive
ILLLRGDGEACFNRVNDNSF	inactive
NLRSISF	inactive
KPNFEPSLAW	inactive
VTGEYLRMAISGCRG	inactive
EEMVSDRVRMLVTINHR	0.661 ± 0.27
HLTVVSSKYITPSGTLMELH	0.648 ± 0.27
YTWDVGHLKNSSSVYWKLLR	inactive
NHWGSNWWLVYKVYSGGLLM	inactive
ICRLGLLFIMTLRYYNVFVR	inactive
GFIGECFFDHMGITFVLIET	inactive
REDWRLFNCTTFSAPSSC	-0.217 ± 0.66
ANVLKFIWAFVWASVALLWS	inactive
LRPYHSRVWCVRLQSYSMVR	inactive
YGCCVSGMYVALGLQ	2.8 ± 0.068
LARMTCYSDCGSNRGLRRVG	inactive
TDFFG	inactive
GPLHMANYGYVLNIYLSCRN	2.15 ± 0.06
ILTLLCRFTYRDETPCLWTV	inactive
RFLYRYG	inactive
LPLLTYSSVSVRPLTSW	inactive

Substance	amyloid nucleation score
RIDRSYACALSWHVLYVNR	0.436 ± 0.23
RFWCLVVCTRLVHMENGRCS	inactive
SWMDRILVRYWVVLDNRNFV	inactive
YFFCCLR	2.44 ± 0.059
CSASAYDSVIIDRIIYLIRG	inactive
ILSCPSS	inactive
VVIHRSSSISGT	inactive
MYPHAQIEYYAVAHSLAIV	inactive
VMAHFWRGKLLRSYVDRWRG	inactive
VFLYTNKYRYGCCGFAFTPF	inactive
RGRIVLNQRLNCDDEDGISE	inactive
PFSSGQSVEYL	inactive
YNVSINYVGENDGWEACFLS	0.666 ± 0.12
FELRGTLGG	0.026 ± 0.37
HYCRNTGC	inactive
LSGKWNKMVCRLVTSKLIFE	inactive
ARPNGTTKCVDNGRKPVRII	inactive
APYNFKDYCISGIWSGYIMF	inactive
VQISIDKAWMRTSTCSIGSK	inactive
KRYNNIAYFVYLLFSLGVTT	inactive
STSRGNRFACPCFDYCWFRE	-0.598 ± 1.1
NGDHRRCSLIT	inactive
LLIGSGVSYFKTWFARHLTA	inactive
LMGKTHFLSVVWVVQVG	inactive
NGDMKARTFHTRDFKFGVPR	inactive
TKNRVYQWMSLSGM	0.828 ± 0.12
PENDRNMLLVSVIVPRYIAT	inactive

Substance	amyloid nucleation score
LSNQLKDEYHCMWMWWVCPN	1.29 ± 0.13
RFNAFSPSPRWPRHFKTMYY	inactive
PFSYDLRNFNSWQIGNGGLM	inactive
YWVLRFRSSCGYSRMRLGPR	inactive
CFGRLLRTAILNLCNLFFAL	inactive
KLSLMAVNLSWIYFCL	0.182 ± 0.27
VHGIRSELDRYLMNTNSTEL	inactive
LSYSSRTRCMLLSLYWCSIR	inactive
AAEDRSWSHPATQFLLVVRQ	inactive
YIKRTIFTYYYRERMIADSY	inactive
GICEMVGTSYTFE	inactive
LRVVISLVIYMRSSTRICSV	inactive
TELFALGYRSFCARTCATHD	inactive
ELRSIR	inactive
VKWTQE	inactive
LTGFYYFTAYVCPNLILVTR	0.878 ± 0.14
AMTCNDYSRYVF	inactive
DRKNCRRSHVWVMRMGNWYC	inactive
RHCWVPGCDRQCKWYFEGTS	inactive
YLSGKLFTRAP	inactive
FFRFRKCAM	inactive
SRNMLH	inactive
SISSYMD	inactive
KRYLGLMQRDVWISDAKLSA	inactive
NCIECRTDTYW	inactive
MSCYN	inactive
